We go through 19 molecules from patent US20200317779A1.

Assay [1] deals with recombinant cynomolgus monkey CD3ε/δ heterodimer (cynomolgus monkey) (UniProt Q95LI5). In words: ELISA, coated CD3ε/δ. Background: ELISA stands for enzyme-linked immunosorbent assay.
In assay [2] the target is recombinant human CD3ε/δ heterodimer (human) (UniProt P07766). The assay can be described thus: ELISA, coated CD3ε/δ.
Chain of recombinant human CD3ε/δ heterodimer (human) (P07766 23-126, stated change not applied, chain 1 of 2): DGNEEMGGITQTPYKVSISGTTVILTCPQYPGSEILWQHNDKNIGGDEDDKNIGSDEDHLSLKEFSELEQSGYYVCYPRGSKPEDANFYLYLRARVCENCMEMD
Chain of recombinant human CD3ε/δ heterodimer (human) (P04234 22-105, stated change not applied, chain 2 of 2, further chain): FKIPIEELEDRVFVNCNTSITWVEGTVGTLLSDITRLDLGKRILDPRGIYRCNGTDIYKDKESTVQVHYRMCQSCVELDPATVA

Chain of recombinant cynomolgus monkey CD3ε/δ heterodimer (cynomolgus monkey) (Q95LI5 22-117, stated change not applied, chain 1 of 2): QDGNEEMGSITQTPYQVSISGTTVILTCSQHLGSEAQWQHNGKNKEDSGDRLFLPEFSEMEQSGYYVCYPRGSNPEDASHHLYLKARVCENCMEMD
Chain of recombinant cynomolgus monkey CD3ε/δ heterodimer (cynomolgus monkey) (Q95LI8 22-105, stated change not applied, chain 2 of 2, further chain): as the sequence (P04234 22-105, stated change not applied, chain 2 of 2, further chain) above, with I5V, N15K, I20V, S32T, D33N, I34N, T64A, S74N, V83L counted along it

B1: F10 (antibody, human IgG1, lambda, L234A L235A, V domains shown)
VH: EVQLVESGGGLVQPGGSLKLSCAASGFTFNTYAMNWVRQASGKGLEWVARIRSKYNNYATYYADSVKDRFTISRDDSKNTLYLQMNSLKTEDTAVYYCVRHGNFGNSYVSWFAYWGQGTLVTVSS
VL: QAVVTQEPSLTVSPGGTVTLTCRSSTGAVTTSNYANWVQQKPGQAPRTLIYGTNKRAPWTPARFSGSLLGDKAALTLSGAQPEDEAEYYCALWYSNLWVFGGGTKLTVLG
For the molecule B1, the Absorbance (450 nm) in assay [1] worked out at 0.091; in assay [2], 0.118.

B2: G12 (antibody, human IgG1, lambda, L234A L235A, V domains shown)
VH: EVQLVESGGGLVQPGGSLKLSCAASGFTFNTYAMNWVRQASGKGLEWVARIRSKYNNYATYYADSVKDRFTISRDDSQSTAYLQMNSLKTEDTAVYYCVRHGNFGNSYVSWFAYWGQGTLVTVSS
VL: QAVVTQEPSLTVSPGGTVTLTCRSSTGAVTTSNYANWVQQKPGQAPRTLIGGTNKRAPWTPARFSGSLLGDKAALTLSGAQPEDEAEYYCALWYSNLWVFGGGTKLTVLG
Take B2: the results for the Absorbance (450 nm) in assay [1] and in assay [2] were 0.065 and 0.085, respectively.

B3: F12 (antibody, human IgG1, lambda, L234A L235A, V domains shown)
VH: EVQLVESGGGLVQPGGSLKLSCAASGFTFNTYAMNWVRQASGKGLEWVARIRSKYNNYATYYADSVKDRFTISRDDSKNTLYLQMNSLKTEDTAVYYCVRHGNFGNSYVSWFAYWGQGTLVTVSS
VL: QAVVTQEPSLTVSPGGTVTLTCRSSTGAVTTSNYANWVQQKPGQAPRTLIGGTNKRAPWTPARFSGSLLGDKAALTLSGAQPEDEAEYYCALWYSNLWVFGGGTKLTVLG
For the molecule B3, the Absorbance (450 nm) in assay [1] came out at 0.077; in assay [2] it was 0.09.

B4: G10 (antibody, human IgG1, lambda, L234A L235A, V domains shown)
VH: EVQLVESGGGLVQPGGSLKLSCAASGFTFNTYAMNWVRQASGKGLEWVARIRSKYNNYATYYADSVKDRFTISRDDSQSTAYLQMNSLKTEDTAVYYCVRHGNFGNSYVSWFAYWGQGTLVTVSS
VL: QAVVTQEPSLTVSPGGTVTLTCRSSTGAVTTSNYANWVQQKPGQAPRTLIYGTNKRAPWTPARFSGSLLGDKAALTLSGAQPEDEAEYYCALWYSNLWVFGGGTKLTVLG
B4: the Absorbance (450 nm) stood at 0.079 in assay [1] and 0.099 in assay [2].

B5: G08 (antibody, human IgG1, lambda, L234A L235A, V domains shown)
VH: EVQLVESGGGLVQPGGSLKLSCAASGFTFNTYAMNWVRQASGKGLEWVARIRSKYNNYATYYADSVKDRFTISRDDSQSTAYLQMNSLKTEDTAVYYCVRHGNFGNSYVSWFAYWGQGTLVTVSS
VL: QAVVTQEPSLTVSPGGTVTLTCRSSTGAVTTSNYANWFQQKPGQAPRGLIGGTNKRAPWTPARFSGSLLGDKAALTLSGAQPEDEAEYYCALWYSNLWVFGGGTKLTVLG
With B5, the Absorbance (450 nm) came to 0.119 in assay [1] and 0.137 in assay [2].

B6: G07 (antibody, human IgG1, lambda, L234A L235A, V domains shown)
VH: EVQLVESGGGLVQPGGSLKLSCAASGFTFNTYAMNWVRQASGKGLEWVARIRSKYNNYATYYADSVKDRFTISRDDSQSTAYLQMNSLKTEDTAVYYCVRHGNFGNSYVSWFAYWGQGTLVTVSS
VL: QAVVTQEPSLTVSPGGTVTLTCRSSTGAVTTSNYANWFQQKPGQAPRGLIGGTNKRAPWTPARFSGSLLGGKAALTLSGAQPEDEAEYYCALWYSNLWVFGGGTKLTVLG
As to B6, the Absorbance (450 nm) in assay [1] turned out to be 0.316; in assay [2] it was 0.118.

B7: F11 (antibody, human IgG1, lambda, L234A L235A, V domains shown)
VH: EVQLVESGGGLVQPGGSLKLSCAASGFTFNTYAMNWVRQASGKGLEWVARIRSKYNNYATYYADSVKDRFTISRDDSKNTLYLQMNSLKTEDTAVYYCVRHGNFGNSYVSWFAYWGQGTLVTVSS
VL: QAVVTQEPSLTVSPGGTVTLTCRSSTGAVTTSNYANWVQQKPGQAPRTLIGGTNKRAPWTPARFSGSLLGGKAALTLSGAQPEDEAEYYCALWYSNLWVFGGGTKLTVLG
In the case of B7, the values for the Absorbance (450 nm) in assay [1] and in assay [2] were 0.104 and 0.138, respectively.

B8: A10 (antibody, human IgG1, lambda, L234A L235A, V domains shown)
VH: EVQLVESGGGLVQPGGSLKLSCAASGFTFNTYAMNWVRQASGKGLEWVGRIRSKYNNYATYYADSVKDRFTISRDDSKNTAYLQMNSLKTEDTAVYYCVRHGNFGNSYVSWFAYWGQGTLVTVSS
VL: QAVVTQEPSLTVSPGGTVTLTCRSSTGAVTTSNYANWVQQKPGQAPRTLIYGTNKRAPWTPARFSGSLLGDKAALTLSGAQPEDEAEYYCALWYSNLWVFGGGTKLTVLG
On to B8, for which the Absorbance (450 nm) was determined as 0.066 in assay [1] and 0.097 in assay [2].

B9: G04 (antibody, human IgG1, lambda, L234A L235A, V domains shown)
VH: EVQLVESGGGLVQPGGSLKLSCAASGFTFNTYAMNWVRQASGKGLEWVARIRSKYNNYATYYADSVKDRFTISRDDSQSTAYLQMNSLKTEDTAVYYCVRHGNFGNSYVSWFAYWGQGTLVTVSS
VL: QAVVTQEPSLTVSPGGTVTLTCRSSTGAVTTSNYANWFQQKPGQAPRTLIGGTNKRAPWTPARFSGSLLGDKAALTLSGAQPEDEAEYYCALWYSNLWVFGGGTKLTVLG
In the case of B9, the values for the Absorbance (450 nm) in assay [1] and in assay [2] were 0.063 and 0.129, respectively.

B10: G03 (antibody, human IgG1, lambda, L234A L235A, V domains shown)
VH: EVQLVESGGGLVQPGGSLKLSCAASGFTFNTYAMNWVRQASGKGLEWVARIRSKYNNYATYYADSVKDRFTISRDDSQSTAYLQMNSLKTEDTAVYYCVRHGNFGNSYVSWFAYWGQGTLVTVSS
VL: QAVVTQEPSLTVSPGGTVTLTCRSSTGAVTTSNYANWFQQKPGQAPRTLIGGTNKRAPWTPARFSGSLLGGKAALTLSGAQPEDEAEYYCALWYSNLWVFGGGTKLTVLG
Consider B10, for which the values for the Absorbance (450 nm) in assay [1] and in assay [2] were 0.088 and 0.098, respectively.

B11: G02 (antibody, human IgG1, lambda, L234A L235A, V domains shown)
VH: EVQLVESGGGLVQPGGSLKLSCAASGFTFNTYAMNWVRQASGKGLEWVARIRSKYNNYATYYADSVKDRFTISRDDSQSTAYLQMNSLKTEDTAVYYCVRHGNFGNSYVSWFAYWGQGTLVTVSS
VL: QAVVTQEPSLTVSPGGTVTLTCRSSTGAVTTSNYANWFQQKPGQAPRTLIYGTNKRAPWTPARFSGSLLGDKAALTLSGAQPEDEAEYYCALWYSNLWVFGGGTKLTVLG
As to B11, the Absorbance (450 nm) in assay [1] came to 0.069; in assay [2] it was 0.146.

B12: G09 (antibody, human IgG1, lambda, L234A L235A, V domains shown)
VH: EVQLVESGGGLVQPGGSLKLSCAASGFTFNTYAMNWVRQASGKGLEWVARIRSKYNNYATYYADSVKDRFTISRDDSQSTAYLQMNSLKTEDTAVYYCVRHGNFGNSYVSWFAYWGQGTLVTVSS
VL: QAVVTQEPSLTVSPGGTVTLTCRSSTGAVTTSNYANWVQQKPGQAPRTLIYGTNKRAPWTPARFSGSLLGGKAALTLSGAQPEDEAEYYCALWYSNLWVFGGGTKLTVLG
For B12, the Absorbance (450 nm) came out at 0.079 in assay [1] and 0.106 in assay [2].

B13: G06 (antibody, human IgG1, lambda, L234A L235A, V domains shown)
VH: EVQLVESGGGLVQPGGSLKLSCAASGFTFNTYAMNWVRQASGKGLEWVARIRSKYNNYATYYADSVKDRFTISRDDSQSTAYLQMNSLKTEDTAVYYCVRHGNFGNSYVSWFAYWGQGTLVTVSS
VL: QAVVTQEPSLTVSPGGTVTLTCRSSTGAVTTSNYANWFQQKPGQAPRGLIYGTNKRAPWTPARFSGSLLGDKAALTLSGAQPEDEAEYYCALWYSNLWVFGGGTKLTVLG
Consider B13, for which the Absorbance (450 nm) in assay [1] amounted to 0.078; in assay [2] it was 0.118.

B14: F14 (antibody, human IgG1, lambda, L234A L235A, V domains shown)
VH: EVQLVESGGGLVQPGGSLKLSCAASGFTFNTYAMNWVRQASGKGLEWVARIRSKYNNYATYYADSVKDRFTISRDDSKNTLYLQMNSLKTEDTAVYYCVRHGNFGNSYVSWFAYWGQGTLVTVSS
VL: QAVVTQEPSLTVSPGGTVTLTCRSSTGAVTTSNYANWVQQKPGQAPRGLIYGTNKRAPWTPARFSGSLLGDKAALTLSGAQPEDEAEYYCALWYSNLWVFGGGTKLTVLG
For B14, the results for the Absorbance (450 nm) in assay [1] and in assay [2] were 0.1 and 0.114, respectively.

B15: G11 (antibody, human IgG1, lambda, L234A L235A, V domains shown)
VH: EVQLVESGGGLVQPGGSLKLSCAASGFTFNTYAMNWVRQASGKGLEWVARIRSKYNNYATYYADSVKDRFTISRDDSQSTAYLQMNSLKTEDTAVYYCVRHGNFGNSYVSWFAYWGQGTLVTVSS
VL: QAVVTQEPSLTVSPGGTVTLTCRSSTGAVTTSNYANWVQQKPGQAPRTLIGGTNKRAPWTPARFSGSLLGGKAALTLSGAQPEDEAEYYCALWYSNLWVFGGGTKLTVLG
Consider B15, for which the figures for the Absorbance (450 nm) in assay [1] and in assay [2] were 0.08 and 0.104, respectively.

B16: G01 (antibody, human IgG1, lambda, L234A L235A, V domains shown)
VH: EVQLVESGGGLVQPGGSLKLSCAASGFTFNTYAMNWVRQASGKGLEWVARIRSKYNNYATYYADSVKDRFTISRDDSQSTAYLQMNSLKTEDTAVYYCVRHGNFGNSYVSWFAYWGQGTLVTVSS
VL: QAVVTQEPSLTVSPGGTVTLTCRSSTGAVTTSNYANWFQQKPGQAPRTLIYGTNKRAPWTPARFSGSLLGGKAALTLSGAQPEDEAEYYCALWYSNLWVFGGGTKLTVLG
Take B16: the Absorbance (450 nm) was 0.096 in assay [1] and 0.113 in assay [2].

B17: A11 (antibody, human IgG1, lambda, L234A L235A, V domains shown)
VH: EVQLVESGGGLVQPGGSLKLSCAASGFTFNTYAMNWVRQASGKGLEWVGRIRSKYNNYATYYADSVKDRFTISRDDSKNTAYLQMNSLKTEDTAVYYCVRHGNFGNSYVSWFAYWGQGTLVTVSS
VL: QAVVTQEPSLTVSPGGTVTLTCRSSTGAVTTSNYANWVQQKPGQAPRTLIGGTNKRAPWTPARFSGSLLGGKAALTLSGAQPEDEAEYYCALWYSNLWVFGGGTKLTVLG
Take B17: the values for the Absorbance (450 nm) in assay [1] and in assay [2] were 0.105 and 0.122, respectively.

B18: F13 (antibody, human IgG1, lambda, L234A L235A, V domains shown)
VH: EVQLVESGGGLVQPGGSLKLSCAASGFTFNTYAMNWVRQASGKGLEWVARIRSKYNNYATYYADSVKDRFTISRDDSKNTLYLQMNSLKTEDTAVYYCVRHGNFGNSYVSWFAYWGQGTLVTVSS
VL: QAVVTQEPSLTVSPGGTVTLTCRSSTGAVTTSNYANWVQQKPGQAPRGLIYGTNKRAPWTPARFSGSLLGGKAALTLSGAQPEDEAEYYCALWYSNLWVFGGGTKLTVLG
As to B18, the Absorbance (450 nm) is 0.151 in assay [1] and 0.192 in assay [2].

B19: G05 (antibody, human IgG1, lambda, L234A L235A, V domains shown)
VH: EVQLVESGGGLVQPGGSLKLSCAASGFTFNTYAMNWVRQASGKGLEWVARIRSKYNNYATYYADSVKDRFTISRDDSQSTAYLQMNSLKTEDTAVYYCVRHGNFGNSYVSWFAYWGQGTLVTVSS
VL: QAVVTQEPSLTVSPGGTVTLTCRSSTGAVTTSNYANWFQQKPGQAPRGLIYGTNKRAPWTPARFSGSLLGGKAALTLSGAQPEDEAEYYCALWYSNLWVFGGGTKLTVLG
Consider B19, for which the Absorbance (450 nm) stood at 0.072 in assay [1] and 0.109 in assay [2].
